# Reference: publication PMC7295792, “Atomic-resolution mapping of transcription factor-DNA interactions by femtosecond laser crosslinking and mass spectrometry”
# Columns and labels:
# NF1 (nuclear factor 1/C) [1] = molecular target: T1, NF1 (nuclear factor 1/C) (Sus scrofa (porcine), UniProt P21999 1-506); test: EMSA; 200 mM NaCl; protein:DNA 2.1:1 to 11:1; NF1 binding buffer: 5 mM Tris-Cl pH 8.0, 90 mM NaCl (200 mM for EMSA and Fig. 2d), 0.5 mM EDTA, 5% glycerol, 0.55 mM beta-mercaptoethanol, 1 ug BSA; TBP: same + 2 mM MgCl2; 25 min, room temperature; conditions: protein: recombinant; tags: 6xHis; chain copies: 2; label: 5'-biotin on both strands
# NF1 (nuclear factor 1/C) [2] = molecular target: T1, NF1 (nuclear factor 1/C); test: femtosecond UV laser crosslinking, western blot; 200 mM NaCl; 50 nJ pulses, total energy titrated; NF1 binding buffer: 5 mM Tris-Cl pH 8.0, 90 mM NaCl (200 mM for EMSA and Fig. 2d), 0.5 mM EDTA, 5% glycerol, 0.55 mM beta-mercaptoethanol, 1 ug BSA; TBP: same + 2 mM MgCl2; 25 min, room temperature; conditions: protein: recombinant; tags: 6xHis; chain copies: 2; label: 5'-biotin on both strands
# [3] = molecular target: TBP (TATA-box binding protein) (Homo sapiens, UniProt P20226 1-339); test: femtosecond UV laser crosslinking, western blot; 2 mM MgCl2; 50 nJ, 1.25 J; NF1 binding buffer: 5 mM Tris-Cl pH 8.0, 90 mM NaCl (200 mM for EMSA and Fig. 2d), 0.5 mM EDTA, 5% glycerol, 0.55 mM beta-mercaptoethanol, 1 ug BSA; TBP: same + 2 mM MgCl2; 25 min, room temperature; conditions: protein: commercial; label: 5'-biotin on both strands
# Chain of TBP (TATA-box binding protein) (P20226 whole entry): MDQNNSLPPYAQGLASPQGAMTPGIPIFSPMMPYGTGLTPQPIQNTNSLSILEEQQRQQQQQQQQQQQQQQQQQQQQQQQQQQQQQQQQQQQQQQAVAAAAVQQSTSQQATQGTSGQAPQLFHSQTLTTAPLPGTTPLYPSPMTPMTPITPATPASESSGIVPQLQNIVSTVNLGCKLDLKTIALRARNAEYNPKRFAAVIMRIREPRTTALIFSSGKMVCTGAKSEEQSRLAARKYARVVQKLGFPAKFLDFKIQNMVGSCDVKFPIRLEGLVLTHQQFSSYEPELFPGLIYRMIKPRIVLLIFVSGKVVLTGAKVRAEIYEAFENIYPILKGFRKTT
# T1 sequence (P21999 whole entry): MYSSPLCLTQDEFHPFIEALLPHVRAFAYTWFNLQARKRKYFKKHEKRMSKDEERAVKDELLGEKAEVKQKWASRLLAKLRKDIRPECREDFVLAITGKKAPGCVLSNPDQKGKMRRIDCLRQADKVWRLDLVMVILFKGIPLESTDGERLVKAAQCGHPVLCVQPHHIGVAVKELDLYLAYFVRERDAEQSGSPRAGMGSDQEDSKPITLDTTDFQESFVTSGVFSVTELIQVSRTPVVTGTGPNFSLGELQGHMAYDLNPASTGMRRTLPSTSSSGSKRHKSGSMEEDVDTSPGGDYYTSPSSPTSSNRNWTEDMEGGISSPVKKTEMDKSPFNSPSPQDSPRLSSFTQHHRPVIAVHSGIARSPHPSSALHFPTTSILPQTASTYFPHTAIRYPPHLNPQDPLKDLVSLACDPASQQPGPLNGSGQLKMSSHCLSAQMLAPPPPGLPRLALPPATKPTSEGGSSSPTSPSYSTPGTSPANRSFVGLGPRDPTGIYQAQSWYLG
binder,measurement,setting,value
NF1 wild-type consensus oligo (dsDNA) DNA 1: AATTCCTTTTTTTGGATTGAAGCCAATCGGATAATGAGG DNA 2: CCTCATTATCCGATTGGCTTCAATCCAAAAAAAGGAATT,binding result,NF1 (nuclear factor 1/C) [1],binds
NF1 wild-type oligo of Fig. 2d (dsDNA) DNA 1: AAGTCCTTTTTTAGGATTGAAGCCAATCGGCTGATGAGG DNA 2: CCTCATCAGCCGATTGGCTTCAATCCTAAAAAAGGACTT,binding result,NF1 (nuclear factor 1/C) [2],binds
TBP wild-type AdML TATAA oligo (dsDNA) DNA 1: CCTGAAGGGGGGCTATAAAAGGGGGTGGGGGCGCG DNA 2: CGCGCCCCCACCCCCTTTTATAGCCCCCCTTCAGG,binding result,[3],binds
